Where “and” joins values, the source holds several entries; their conditions need not be identical. Equal entries are not always repeated.
Columns and labels:
Test in all cases: cell-based or functional assay
[1] = target: recombinant soluble human RANKL (human) (UniProt O14788)
[2] = target: T1, mouse RANK on murine bone marrow cells (mouse, UniProt O35305 31-625)
T1 sequence (looked up): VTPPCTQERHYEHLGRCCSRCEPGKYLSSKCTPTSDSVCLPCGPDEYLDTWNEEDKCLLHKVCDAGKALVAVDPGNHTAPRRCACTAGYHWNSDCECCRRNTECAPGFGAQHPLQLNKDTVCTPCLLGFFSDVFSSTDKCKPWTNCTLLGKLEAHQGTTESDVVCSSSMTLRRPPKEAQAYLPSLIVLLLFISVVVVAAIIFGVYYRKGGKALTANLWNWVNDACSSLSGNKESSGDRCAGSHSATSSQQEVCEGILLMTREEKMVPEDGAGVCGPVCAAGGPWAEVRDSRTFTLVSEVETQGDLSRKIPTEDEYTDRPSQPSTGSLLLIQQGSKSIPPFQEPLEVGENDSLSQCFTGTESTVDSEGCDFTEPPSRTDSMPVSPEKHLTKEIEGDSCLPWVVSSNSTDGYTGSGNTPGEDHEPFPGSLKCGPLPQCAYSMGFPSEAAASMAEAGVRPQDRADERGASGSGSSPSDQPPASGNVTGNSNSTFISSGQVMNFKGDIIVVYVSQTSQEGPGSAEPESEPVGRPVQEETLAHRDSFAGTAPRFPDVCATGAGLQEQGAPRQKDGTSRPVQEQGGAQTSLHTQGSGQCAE

[3] = target: soluble mouse RANKL (mouse) (UniProt O35235)
Sequence of soluble mouse RANKL (mouse) (O35235 143-316 limits assumed): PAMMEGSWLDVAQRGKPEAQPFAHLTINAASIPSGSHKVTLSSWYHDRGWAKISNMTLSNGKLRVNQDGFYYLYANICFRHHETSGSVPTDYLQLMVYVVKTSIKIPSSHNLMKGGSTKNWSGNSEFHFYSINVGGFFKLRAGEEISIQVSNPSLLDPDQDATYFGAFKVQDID

Sequence of recombinant soluble human RANKL (human) (O14788 143-317 limits assumed): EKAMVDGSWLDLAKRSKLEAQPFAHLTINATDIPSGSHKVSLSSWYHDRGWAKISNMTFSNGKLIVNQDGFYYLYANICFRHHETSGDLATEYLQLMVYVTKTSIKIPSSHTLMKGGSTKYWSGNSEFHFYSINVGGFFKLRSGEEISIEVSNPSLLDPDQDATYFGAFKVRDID

RANK-Fc (positive control in osteoclast assay) (Fc fusion)
IC50, huRANKL-induced osteoclast formation (TRAP+ multinucleated cells) [1]: 0.092 µg/mL
concentration for complete block of huRANKL-induced osteoclast formation [1]: 500 ng/mL and 1000 ng/mL

B1: anti-RANK 3A3 antibody (full-length IgG, human Fab on a mouse IgG2a Fc backbone) (antibody, V domains shown)
VH: EVQLVESGGGVVQPGTSLRLSCAASGFTFSSYAMHWVRQAPGKGLEWVAVVSYDGSTKSYADSMKGRFTISRDNSKNTLYLQMNSLRAEDTAVYYCAKDPALRYFDWGYFQHWGQGTLVTVSS
VL: SYELTQPPSVSVSPGQTASITCSGDKLGDKYVCWYQQKPGQSPVLVIYGDSERPSGIPERFSGSNSGNTATLTISGTRAVDEADYYCQAWDSTTPLFGGGTNLTVL
IC50, huRANKL-induced osteoclast formation (TRAP+ multinucleated cells) [2]: 0.0035 µg/mL
IC50, muRANKL-induced osteoclast formation (TRAP+ multinucleated cells) [2]: 0.0074 µg/mL
potency ratio from IC50s, huRANKL-induced osteoclast formation [2]: ~25 fold
potency ratio from IC50s, muRANKL-induced osteoclast formation [2]: ~2 fold

B2: anti-muRANKL IK22-5 mAb (antibody, from a related filing, V domains shown)
VH: QVQLKESGPGLVLSSATLSLTCTVSGFSLTNYDVSWIRHLPGKGLEWMGGVWLSGNTEYNSDFKSRLSISRDISKSQVFLKMSNLKIEDTGTYYCARDIGTTSDYWGQGVTVTVSS
VL: DIQVTQSPSFLSASVGDRVTFNCKTSQNINKYLAWYQAKFGEGPKLLIFNADSLQSGIPPRFSGSGSGTDFTLTISGLQPEDFATYFCLQYNSWPTFGSGTKLEIK
IC50, muRANKL-induced osteoclast formation (TRAP+ multinucleated cells) [3]: 0.0198 µg/mL
concentration for complete block of muRANKL-induced osteoclast formation [3]: 62.5 to 125 ng/mL
